Laboratory results as given in patent US20230114801A1 (SYSTIMMUNE, published 2023).

How the values were obtained:
[1] = target: T1, human CD3 (human, UniProt P07766 23-126; P04234 22-105); assay: BLI (Octet), binder on AHC sensor, His-tagged human CD3 (series from 200 nM or single 100 nM), 1:1 fit
T1 construct: also called His-tagged human CD3; human CD3 (Acro CDD-H52W1)

[2] = target: T2, human PD-L1 (human, UniProt Q9NZQ7 19-238); assay: BLI (Octet), binder on AHC sensor; antigen conditions not stated
T2 construct: Soluble antigen in Octet; bought; also called human PD-L1 (Acro PD1-H5229)

[3] = target: T3, human 4-1BB (human, UniProt Q07011 24-186, limits assumed); assay: as above
T3 construct: Soluble antigen in Octet; construct not described

[4] = target: T4, CD19 (UniProt P15391 20-291, limits assumed); assay: as above
T4 sequence (looked up): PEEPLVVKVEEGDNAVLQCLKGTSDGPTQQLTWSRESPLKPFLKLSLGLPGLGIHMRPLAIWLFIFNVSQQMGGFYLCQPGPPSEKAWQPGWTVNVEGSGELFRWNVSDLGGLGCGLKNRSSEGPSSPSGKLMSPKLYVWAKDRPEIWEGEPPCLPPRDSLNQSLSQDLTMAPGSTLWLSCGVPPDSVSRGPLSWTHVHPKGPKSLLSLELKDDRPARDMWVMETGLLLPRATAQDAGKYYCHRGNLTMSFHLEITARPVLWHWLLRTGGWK

B1: SI-68P17 (other)
chain 1: DVVMTQSPSTLSASVGDRVTINCQASESISSWLAWYQQKPGKAPKLLIYEASKLASGVPSRFSGSGSGTEFTLTISSLQPDDFATYYCQGYFYFISRTYVNSFGGGTKVEIKGGGGSGGGGSGGGGSGGGGSEVQLVESGGGLVQPGGSLRLSCAASGFTISTNAMSWVRQAPGKGLEWIGVITGRDITYYASWAKGRFTISRDNSKNTLYLQMNSLRAEDTAVYYCARDGGSSAITSNNIWGQGTLVTVSSGGGGSGGGGSQVQLQQSGPGLVKPSETLSITCTVSGFSLTNYGVHWIRQAPGKGLEWLGVIWSGGNTDYNTPFTSRFTITKDNSKNQVYFKLRSVRADDTAIYYCARALTYYDYEFAYWGQGTLVTVSSASTKGPSVFPLAPSSKSTSGGTAALGCLVKDYFPEPVTVSWNSGALTSGVHTFPAVLQSSGLYSLSSVVTVPSSSLGTQTYICNVNHKPSNTKVDKRVEPKSCDKTHTCPPCPAPEAAGGPSVFLFPPKPKDTLMISRTPEVTCVVVDVSHEDPEVKFNWYVDGVEVHNAKTKPREEQYNSTYRVVSVLTVLHQDWLNGKEYKCAVSNKALPAPIEKTISKAKGQPREPQVYTLPPSRDELTKNQVSLSCAVKGFYPSDIAVEWESNGQPENNYKTTPPVLDSDGSFFLVSKLTVDKSRWQQGNVFSCSVMHEALHNHYTQKSLSLSPGGGGGSGGGGSDVVMTQSPSSVSASVGDRVTITCQASQNIRTYLSWYQQKPGKAPKLLIYAAANLASGVPSRFSGSGSGTDFTLTISDLEPGDAATYYCQSTYLGTDYVGGAFGGGTKLTVLGGGGSGGGGSGGGGSGGGGSEVQLVESGGGLVQPGGSLRLSCTASGFTISSYHMQWVRQAPGKGLEYIGTISSGGNVYYASSARGRFTISRPSSKNTVDLQMNSLRAEDTAVYYCARDSGYSDPMWGQGTLVTVSS
chain 2: ENVLTQSPASLSASPGERVTITCSASSSVSYMHWYQQKPGQAPKLWIYDTSKLASGVPSRFSGSGSGNDHTLTISSMEPEDFATYYCFQGSVYPFTFGQGTKVTVLGGGGSGGGGSGGGGSGGGGSQVTLKESGPGLVQPGQTLSLTCAFSGFSLSTSGMGVGWIRQPPGKGLEWLAHIWWDDDKRYNPALKSRLTISKDTSKNQVYLQMNSLDAEDTAVYYCARMELWSYYFDYWGQGTLVTVSSGGGGSGGGGSEIVLTQSPSTLSVSPGERATFSCRASQSIGTNIHWYQQKPGKPPRLLIKYASESISGIPDRFSGSGSGTEFTLTISSVQSEDFAVYYCQQNNNWPTTFGPGTKLTVLRTVAAPSVFIFPPSDEQLKSGTASVVCLLNNFYPREAKVQWKVDNALQSGNSQESVTEQDSKDSTYSLSSTLTLSKADYEKHKVYACEVTHQGLSSPVTKSFNRGECGGDKTHTCPPCPAPEAAGGPSVFLFPPKPKDTLMISRTPEVTCVVVDVSHEDPEVKFNWYVDGVEVHNAKTKPREEQYNSTYRVVSVLTVLHQDWLNGKEYKCAVSNKALPAPIEKTISKAKGQPREPQVYTLPPSRDELTKNQVSLWCLVKGFYPSDIAVEWESNGQPENNYKTTPPVLDSDGSFFLYSKLTVDKSRWQQGNVFSCSVMHEALHNRFTQKSLSLSPGGGGGSGGGGSDIQMTQSPSTLSASVGDRVTITCQASQSISSHLNWYQQKPGKAPKLLIYKASTLASGVPSRFSGSGSGTEFTLTISSLQPDDFATYYCQQGYSWGNVDNVFGGGTKVTVLGGGGSGGGGSGGGGSGGGGSEVQLLESGGGLVQPGGSLSLSCAASGFSFSSGYDMCWVRQAPGKGLEWIACIAAGSAGITYDANWAKGRFTISRDNSKNTLYLQMNSLRAEDTAVYYCARSAFSFDYAMDLWGQGTLVTVSS
notes: penta-miniGNC; D1 αCD3, D2 αCD19, D3 αEGFR (Fab), D4 α4-1BB, D5 αPD-L1
- Kd [1]: 15.8 nM
- Kd [2]: 2.72 nM
- Kd [3]: 26.8 nM
- Kd [4]: 5.05 nM

B2: SI-68P18 (other)
chain 1: DVQMTQSPSTLSATVGQRVTINCQASESISSWLAWYQQKPGQPPKLLIYEASKLASGVPSRFSGSGSGTEFTLTISSLQSDDFATYYCQGYFYFISRTYVNSFGGGTRVEIKGGGGSGGGGSGGGGSGGGGSQQLLESGGRLIKPGATLRLTCKTSGFTISTNAMSWVRQPPGKGLEWIGVITGRDITYYASWAKGRFTISKTSINTVFLQMRSLRAEDTAVYYCARDGGSSAITSNNIWGRGTLVTVSSGGGGSGGGGSQVQLQQSGPGLVKPSETLSITCTVSGFSLTNYGVHWIRQAPGKGLEWLGVIWSGGNTDYNTPFTSRFTITKDNSKNQVYFKLRSVRADDTAIYYCARALTYYDYEFAYWGQGTLVTVSSASTKGPSVFPLAPSSKSTSGGTAALGCLVKDYFPEPVTVSWNSGALTSGVHTFPAVLQSSGLYSLSSVVTVPSSSLGTQTYICNVNHKPSNTKVDKRVEPKSCDKTHTCPPCPAPEAAGGPSVFLFPPKPKDTLMISRTPEVTCVVVDVSHEDPEVKFNWYVDGVEVHNAKTKPREEQYNSTYRVVSVLTVLHQDWLNGKEYKCAVSNKALPAPIEKTISKAKGQPREPQVYTLPPSRDELTKNQVSLSCAVKGFYPSDIAVEWESNGQPENNYKTTPPVLDSDGSFFLVSKLTVDKSRWQQGNVFSCSVMHEALHNHYTQKSLSLSPGGGGGSGGGGSDVVMTQSPSSVSASVGDRVTITCQASQNIRTYLSWYQQKPGKAPKLLIYAAANLASGVPSRFSGSGSGTDFTLTISDLEPGDAATYYCQSTYLGTDYVGGAFGGGTKLTVLGGGGSGGGGSGGGGSGGGGSEVQLVESGGGLVQPGGSLRLSCTASGFTISSYHMQWVRQAPGKGLEYIGTISSGGNVYYASSARGRFTISRPSSKNTVDLQMNSLRAEDTAVYYCARDSGYSDPMWGQGTLVTVSS
chain 2: ENVLTQSPASLSASPGERVTITCSASSSVSYMHWYQQKPGQAPKLWIYDTSKLASGVPSRFSGSGSGNDHTLTISSMEPEDFATYYCFQGSVYPFTFGQGTKVTVLGGGGSGGGGSGGGGSGGGGSQVTLKESGPGLVQPGQTLSLTCAFSGFSLSTSGMGVGWIRQPPGKGLEWLAHIWWDDDKRYNPALKSRLTISKDTSKNQVYLQMNSLDAEDTAVYYCARMELWSYYFDYWGQGTLVTVSSGGGGSGGGGSEIVLTQSPSTLSVSPGERATFSCRASQSIGTNIHWYQQKPGKPPRLLIKYASESISGIPDRFSGSGSGTEFTLTISSVQSEDFAVYYCQQNNNWPTTFGPGTKLTVLRTVAAPSVFIFPPSDEQLKSGTASVVCLLNNFYPREAKVQWKVDNALQSGNSQESVTEQDSKDSTYSLSSTLTLSKADYEKHKVYACEVTHQGLSSPVTKSFNRGECGGDKTHTCPPCPAPEAAGGPSVFLFPPKPKDTLMISRTPEVTCVVVDVSHEDPEVKFNWYVDGVEVHNAKTKPREEQYNSTYRVVSVLTVLHQDWLNGKEYKCAVSNKALPAPIEKTISKAKGQPREPQVYTLPPSRDELTKNQVSLWCLVKGFYPSDIAVEWESNGQPENNYKTTPPVLDSDGSFFLYSKLTVDKSRWQQGNVFSCSVMHEALHNRFTQKSLSLSPGGGGGSGGGGSDIQMTQSPSTLSASVGDRVTITCQASQSISSHLNWYQQKPGKAPKLLIYKASTLASGVPSRFSGSGSGTEFTLTISSLQPDDFATYYCQQGYSWGNVDNVFGGGTKVTVLGGGGSGGGGSGGGGSGGGGSEVQLLESGGGLVQPGGSLSLSCAASGFSFSSGYDMCWVRQAPGKGLEWIACIAAGSAGITYDANWAKGRFTISRDNSKNTLYLQMNSLRAEDTAVYYCARSAFSFDYAMDLWGQGTLVTVSS
notes: penta-miniGNC; D1 αCD3*** (humanized framework 2), D2 αCD19, D3 αEGFR (Fab), D4 α4-1BB, D5 αPD-L1
- Kd [1]: 14.5 nM
- Kd [2]: 1 nM
- Kd [3]: 7.51 nM
- Kd [4]: 1.35 nM

B3: SI-68P19 (other)
chain 1: DVVMTQSPSSLSASVGDRVTISCQASESISSWLAWYQQKPGQAPKLLIYEASKLASGVPSRFSGSGSGTEFTLTISSLEPEDFATYYCQGYFYFISRTYVNSFGGGTKVEIKGGGGSGGGGSGGGGSGGGGSQQLVESGGGLVKPGGSLRLSCAASGFTISTNAMSWVRQAPGKGLEWVGVITGRDITYYASWAKGRFTISKTSKNTVYLQMNSLRAEDTAVYYCARDGGSSAITSNNIWGQGTLVTVSSGGGGSGGGGSQVQLQQSGPGLVKPSETLSITCTVSGFSLTNYGVHWIRQAPGKGLEWLGVIWSGGNTDYNTPFTSRFTITKDNSKNQVYFKLRSVRADDTAIYYCARALTYYDYEFAYWGQGTLVTVSSASTKGPSVFPLAPSSKSTSGGTAALGCLVKDYFPEPVTVSWNSGALTSGVHTFPAVLQSSGLYSLSSVVTVPSSSLGTQTYICNVNHKPSNTKVDKRVEPKSCDKTHTCPPCPAPEAAGGPSVFLFPPKPKDTLMISRTPEVTCVVVDVSHEDPEVKFNWYVDGVEVHNAKTKPREEQYNSTYRVVSVLTVLHQDWLNGKEYKCAVSNKALPAPIEKTISKAKGQPREPQVYTLPPSRDELTKNQVSLSCAVKGFYPSDIAVEWESNGQPENNYKTTPPVLDSDGSFFLVSKLTVDKSRWQQGNVFSCSVMHEALHNHYTQKSLSLSPGGGGGSGGGGSDVVMTQSPSSVSASVGDRVTITCQASQNIRTYLSWYQQKPGKAPKLLIYAAANLASGVPSRFSGSGSGTDFTLTISDLEPGDAATYYCQSTYLGTDYVGGAFGGGTKLTVLGGGGSGGGGSGGGGSGGGGSEVQLVESGGGLVQPGGSLRLSCTASGFTISSYHMQWVRQAPGKGLEYIGTISSGGNVYYASSARGRFTISRPSSKNTVDLQMNSLRAEDTAVYYCARDSGYSDPMWGQGTLVTVSS
chain 2: ENVLTQSPASLSASPGERVTITCSASSSVSYMHWYQQKPGQAPKLWIYDTSKLASGVPSRFSGSGSGNDHTLTISSMEPEDFATYYCFQGSVYPFTFGQGTKVTVLGGGGSGGGGSGGGGSGGGGSQVTLKESGPGLVQPGQTLSLTCAFSGFSLSTSGMGVGWIRQPPGKGLEWLAHIWWDDDKRYNPALKSRLTISKDTSKNQVYLQMNSLDAEDTAVYYCARMELWSYYFDYWGQGTLVTVSSGGGGSGGGGSEIVLTQSPSTLSVSPGERATFSCRASQSIGTNIHWYQQKPGKPPRLLIKYASESISGIPDRFSGSGSGTEFTLTISSVQSEDFAVYYCQQNNNWPTTFGPGTKLTVLRTVAAPSVFIFPPSDEQLKSGTASVVCLLNNFYPREAKVQWKVDNALQSGNSQESVTEQDSKDSTYSLSSTLTLSKADYEKHKVYACEVTHQGLSSPVTKSFNRGECGGDKTHTCPPCPAPEAAGGPSVFLFPPKPKDTLMISRTPEVTCVVVDVSHEDPEVKFNWYVDGVEVHNAKTKPREEQYNSTYRVVSVLTVLHQDWLNGKEYKCAVSNKALPAPIEKTISKAKGQPREPQVYTLPPSRDELTKNQVSLWCLVKGFYPSDIAVEWESNGQPENNYKTTPPVLDSDGSFFLYSKLTVDKSRWQQGNVFSCSVMHEALHNRFTQKSLSLSPGGGGGSGGGGSDIQMTQSPSTLSASVGDRVTITCQASQSISSHLNWYQQKPGKAPKLLIYKASTLASGVPSRFSGSGSGTEFTLTISSLQPDDFATYYCQQGYSWGNVDNVFGGGTKVTVLGGGGSGGGGSGGGGSGGGGSEVQLLESGGGLVQPGGSLSLSCAASGFSFSSGYDMCWVRQAPGKGLEWIACIAAGSAGITYDANWAKGRFTISRDNSKNTLYLQMNSLRAEDTAVYYCARSAFSFDYAMDLWGQGTLVTVSS
notes: penta-miniGNC; D1 αCD3**** (humanized framework 3), D2 αCD19, D3 αEGFR (Fab), D4 α4-1BB, D5 αPD-L1
- Kd [1]: 16.7 nM
- Kd [2]: 0.7 nM
- Kd [3]: 21.2 nM
- Kd [4]: 3.44 nM
